This note sets out measurements from patent US20200157187A1 (LOYOLA UNIVERSITY CHICAGO, published 2020).

For orientation: koff means a measure of how fast the partners let go of each other. A word on the kon: it is a measure of how fast the partners come together. One may read the Kd as the free concentration of one partner at which half of the binding sites on the other are occupied at equilibrium, for simple one-to-one binding.

Assay [1] addresses T1, active TGF-β on the surface of human CD4+CD25+ Tregs (human, UniProt P01137 279-390, The active form is a disulfide-linked homodimer of the growth factor domain; one chain is given.).
T1 construct: also called surface TGF-β; surface active TGF-β
The assay is described as follows: confocal microscopy of human Tregs, detected with anti-rabbit Fab-AF488. As for the experimental part: FIGS. 5A and 5B represent functional characterization of 6Fc. FIG. 5A represents an effect of 6Fc on phosphorylation of SMAD2/3. […] As a control, WTFc was used (shown on the right panel). Phosphorylation of SMAD2,3 was assessed by flow cytometry (solid line). Dotted lines show isotype control staining. FIG. 5B represents confocal images of Tregs stained with the monobody-Ig fusion proteins. Purified human PBMC-derived Tregs were mixed with 6Fc or WTFc (40 μg/ml), followed by anti-rabbit Fab-AF488 (green) and Hoechst-33342 (blue) staining. Single-cell images were obtained using an LSM-510 confocal microscope (×40).

The next assay concerns the target T2, TGF-β2 (UniProt P61812 303-414).
T2 sequence (looked up): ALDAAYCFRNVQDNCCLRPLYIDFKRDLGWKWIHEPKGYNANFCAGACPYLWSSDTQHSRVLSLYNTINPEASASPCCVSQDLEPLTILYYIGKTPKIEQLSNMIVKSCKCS
The experiment in a line: ELISA on coated TGF-β isoforms. On the technique in general: ELISA stands for enzyme-linked immunosorbent assay.

The target in a further assay is T3, TGF-β3 (UniProt P10600 301-412).
T3 sequence (looked up): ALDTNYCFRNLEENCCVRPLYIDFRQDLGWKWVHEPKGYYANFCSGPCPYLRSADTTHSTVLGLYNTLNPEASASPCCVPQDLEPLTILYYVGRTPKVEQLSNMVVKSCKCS
The experiment in a line: ELISA on coated TGF-β isoforms.

Assay [2] has as its target T4, active TGF-β1, recombinant (Ala279-Ser390) (UniProt P01137 279-390).
T4 construct: range 279-390; The background describes the growth factor domain as a dimer; also called purified active TGF-β1
The assay is described as follows: SPR, kinetic analysis on active TGF-β. For orientation: SPR reads the build-up and loss of mass on a sensor chip optically.

The target in assay [3] is T4, active TGF-β1, recombinant …. The assay is described as follows: SPR, chip coated with active TGF-β, positive control antibody.

T4 sequence (P01137 279-390 limits assumed, form in doubt): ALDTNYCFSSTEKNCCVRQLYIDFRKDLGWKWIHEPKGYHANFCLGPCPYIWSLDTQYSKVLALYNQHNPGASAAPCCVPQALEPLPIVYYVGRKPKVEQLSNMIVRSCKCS
T1 sequence (P01137 279-390 limits assumed): as the sequence (P01137 279-390 limits assumed, form in doubt) above

B1: WTFc (wild-type FN3 fused to rabbit IgG constant region CH2/CH3, His6 tag) (Fc fusion)
chain (part 1 of 2): AVSDVPRKLEVVAATPTSLLISWDAPIKRRLYYRITYGETGGNSPVQEFTVPGSKSTATISGLKPGVDYTITVYAVTYPAPYSKPISINYR
chain (part 2 of 2): HHHHHH
notes: Control fusion protein; also called wild-type FN3 fusion protein; not shown: rabbit IgG constant region, CH2/CH3 (Cγ2-Cγ3) domains
On to B1, for which the binding result is “no binding (tested: 40 µg/ml)” in assay [1], “no binding” with TGF-β2 and “no binding” in the assay with TGF-β3.

B2: anti-TGF-β monoclonal antibody 1D11 (antibody, V domains shown)
VH: QVQLQQSGPELVRPGASVKLSCKASGYIFITYWMNWVKQRPGQGLEWIGQIFPASGSTNYNEMFEGKATLTVDTSSSTAYMQLSSLTSEDSAVYYCARGDGNYALDAMDYWGQGTSVTVSS
VL: DIVLTQSPASLAVSLGQRATISCRASESVDSYGNSFMHWYQQKSGQPPKLLIYLASNLESGVPARFSGSGSRTDFTLTIDPVEADDAATYYCQQNNEDPLTFGAGTKLEIK
On to B2, for which, in assay [2], the off-rate (koff) was determined as 0.00028 s⁻¹ and the kon amounted to 14000 M⁻¹ s⁻¹. For the same molecule, the dissociation constant Kd in assay [3] worked out at 1.9 nM.
